Article PMC2854499 (Nature, 2008)

Target: T1, MBP-tagged WSTF C-motif (208-345) (human, UniProt Q9UIG0 208-345)
T1 sequence (looked up): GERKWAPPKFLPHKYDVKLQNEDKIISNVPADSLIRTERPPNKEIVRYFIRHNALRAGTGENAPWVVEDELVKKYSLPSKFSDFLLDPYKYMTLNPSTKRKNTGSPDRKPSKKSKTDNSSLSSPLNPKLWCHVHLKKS
Experiment: pull-down + SEC

B1: GST-tagged WSTF N-motif (1-205) (domain or fragment, human, UniProt Q9UIG0 1-205, looked up)
chain: MAPLLGRKPFPLVKPLPGEEPLFTIPHTQEAFRTREEYEARLERYSERIWTCKSTGSSQLTHKEAWEEEQEVAELLKEEFPAWYEKLVLEMVHHNTASLEKLVDTAWLEIMTKYAVGEECDFEVGKEKMLKVKIVKIHPLEKVDEEATEKKSDGACDSPSSDKENSSQIAQDHQKKETVVKEDEGRRESINDRARRSPRKLPTSL
  stoichiometry N: 1
